# Measurements as given in patent US20070099268A1, “Chimeric HCN channels” (priority 2005, published 2007).
# What was measured:
# [1] = tested on: AdHCN2 infected culture; assay: Modulation of spontaneous rate by drugs in an AdHCN2 infected culture; format: cell-based, rat; conditions: superfusion with drug; control record of same culture 48, 54 and 96 beats/min respectively
# [2] = tested on: expressed HCN2 current in a neonatal ventricular myocyte; assay: Effect of threshold concentration of isoproterenol on expressed HCN2 current, two-step voltage protocol; format: cell-based, rat
# Excerpt: The effect of isoproterenol is to shift the activation curve positive without increasing maximal current. This effect can be visualized by a two-step voltage protocol, with the first step to the midpoint of the activation curve and the second step to the maximum curve. FIG. 23 employs this two-step protocol to illustrate that this threshold concentration of isoproterenol shifts the activation curve of over-expressed HCN2 in a neonatal rat ventricle cell.
# [3] = tested on: native pacemaker current in sinus node; conditions: cited from earlier work
# [4] = tested on: hMSCs loaded with HCN2; conditions: cited from earlier work
# [5] = target: mouse Cx45 on transfected HeLa cells (mouse) (UniProt P28229)
# [6] = target: rat Cx40 on transfected HeLa cells (rat) (UniProt P28234)
# [7] = target: rat Cx43 on transfected HeLa cells (rat) (UniProt P08050)
# [8] = target: HCN1 (Mus musculus, UniProt O88704); assay: Coexpression of HCN1 with MiRP1 or minK in Xenopus oocytes, two-microelectrode voltage clamp; conditions: maximal conductance
# HCN1, sequence (O88704 whole entry): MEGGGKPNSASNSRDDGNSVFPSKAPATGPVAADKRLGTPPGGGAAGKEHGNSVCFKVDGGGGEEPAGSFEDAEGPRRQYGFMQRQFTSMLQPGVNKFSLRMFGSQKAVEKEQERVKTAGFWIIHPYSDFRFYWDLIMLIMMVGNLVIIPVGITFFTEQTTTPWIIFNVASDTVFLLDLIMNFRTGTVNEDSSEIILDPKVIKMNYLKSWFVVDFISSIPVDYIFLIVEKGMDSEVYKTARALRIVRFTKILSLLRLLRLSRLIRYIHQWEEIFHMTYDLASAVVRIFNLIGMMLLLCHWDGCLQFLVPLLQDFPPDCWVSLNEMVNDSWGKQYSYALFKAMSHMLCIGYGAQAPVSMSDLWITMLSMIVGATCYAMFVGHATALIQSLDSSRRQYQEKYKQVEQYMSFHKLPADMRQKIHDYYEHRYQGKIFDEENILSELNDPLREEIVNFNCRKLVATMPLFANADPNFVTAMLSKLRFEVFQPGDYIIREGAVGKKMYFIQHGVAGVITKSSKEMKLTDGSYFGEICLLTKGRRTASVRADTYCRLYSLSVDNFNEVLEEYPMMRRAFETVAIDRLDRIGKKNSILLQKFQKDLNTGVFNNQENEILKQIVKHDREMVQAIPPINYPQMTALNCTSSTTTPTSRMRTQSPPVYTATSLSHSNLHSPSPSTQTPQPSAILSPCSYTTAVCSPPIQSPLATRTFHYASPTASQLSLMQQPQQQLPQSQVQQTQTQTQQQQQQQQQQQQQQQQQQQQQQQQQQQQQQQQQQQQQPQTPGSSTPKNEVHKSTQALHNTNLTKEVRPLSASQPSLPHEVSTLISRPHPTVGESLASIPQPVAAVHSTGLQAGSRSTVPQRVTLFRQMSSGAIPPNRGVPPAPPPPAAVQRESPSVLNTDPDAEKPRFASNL
# [9] = target: T1, HCN2 (Mus musculus, UniProt O88703); assay: Coexpression of HCN2 with MiRP1 or minK in Xenopus oocytes, two-microelectrode voltage clamp; conditions: maximal conductance
# T1 sequence (O88703 1-863): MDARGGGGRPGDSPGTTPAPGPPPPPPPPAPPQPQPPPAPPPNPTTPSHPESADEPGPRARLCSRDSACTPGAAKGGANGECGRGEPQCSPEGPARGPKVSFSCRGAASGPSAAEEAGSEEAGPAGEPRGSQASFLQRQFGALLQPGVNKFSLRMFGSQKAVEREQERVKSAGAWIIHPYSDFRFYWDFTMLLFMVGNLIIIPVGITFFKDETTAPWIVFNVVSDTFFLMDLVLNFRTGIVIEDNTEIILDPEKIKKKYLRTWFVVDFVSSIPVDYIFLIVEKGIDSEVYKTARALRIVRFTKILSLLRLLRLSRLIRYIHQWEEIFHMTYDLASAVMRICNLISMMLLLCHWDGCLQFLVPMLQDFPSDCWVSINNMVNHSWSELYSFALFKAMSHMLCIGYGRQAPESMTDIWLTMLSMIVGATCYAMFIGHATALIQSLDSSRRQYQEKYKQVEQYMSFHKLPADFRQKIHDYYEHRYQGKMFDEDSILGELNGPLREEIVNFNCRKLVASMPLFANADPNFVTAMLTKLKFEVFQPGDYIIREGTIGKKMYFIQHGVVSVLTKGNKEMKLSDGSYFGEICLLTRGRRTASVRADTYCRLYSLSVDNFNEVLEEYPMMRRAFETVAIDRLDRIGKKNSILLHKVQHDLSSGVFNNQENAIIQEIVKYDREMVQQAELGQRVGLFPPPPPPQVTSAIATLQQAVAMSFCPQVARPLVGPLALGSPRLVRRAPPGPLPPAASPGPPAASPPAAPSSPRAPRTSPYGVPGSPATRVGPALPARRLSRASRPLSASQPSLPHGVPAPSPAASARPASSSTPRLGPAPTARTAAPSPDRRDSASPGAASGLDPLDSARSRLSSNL
compound,measurement,setting,value
CC(C)NCC(O)c1ccc(O)c(O)c1 (stereo not drawn) [isoproterenol],spontaneous rate during drug exposure,[1],63 beats/min
same,positive shift of activation curve,[2],approximately 5 mV
same,threshold concentration on native pacemaker current,[3],approximately 1 nM
same,effect on expressed current,[4],shift in activation such that increased current flowed at more positive potentials
human mesenchymal stem cells (cells without a defined receptor),junctional conductance in cell pairs (double voltage clamp),[5],11 nS
same,junctional conductance in cell pairs (double voltage clamp),[6],4.6 nS
same,junctional conductance in cell pairs (double voltage clamp),[7],7.9 nS
"minK: rat minK, the minimal K channel protein",enhancement of HCN1 conductance on coexpression,[8],does not enhance
same,enhancement of HCN2 expression on coexpression,[9],does not enhance
